Experimental data published in patent US20150166656A1.
Blank lines part the entries; values can stand above or below the binder they belong to. Where no end group is shown, it is not given here. [ ]: non-standard residue; d: D form. pGlu = O=C1CC[C@@H](C(=O)O)N1

How the values were obtained:
MAb 458-3 [1] = assay: MAb inhibition ELISA; free peptide inhibits 458-3 binding to the coated target conjugate
MAb 458-5 = assay: MAb inhibition ELISA; free peptide inhibits 458-5 binding to the coated target conjugate
MAb 458-4 = assay: MAb inhibition ELISA; free peptide inhibits 458-4 binding to the coated target conjugate
MAb 458-1 [2] = assay: MAb inhibition ELISA; free peptide inhibits 458-1 binding to the coated target conjugate
MAb 458-2 = assay: MAb inhibition ELISA; free peptide inhibits 458-2 binding to the coated target conjugate
MAb 445-2 = assay: MAb inhibition ELISA; free peptide inhibits 445-2 binding to coated hG34(16-34)-Gly 35-BSA
MAb 445-1 = assay: MAb inhibition ELISA; free peptide inhibits 445-1 binding to coated hG34(16-34)-Gly 35-BSA
MAb 401-2 = assay: MAb inhibition ELISA; free peptide inhibits 401-2 binding to the coated G34 N-terminal peptide-BSA
MAb 400-1 = assay: MAb inhibition ELISA; free peptide inhibits 400-1 binding to coated hG17(1-9)-“Ala”-BSA
MAb 400-4 = assay: MAb inhibition ELISA; free peptide inhibits 400-4 binding to coated hG17(1-9)-“Ala”-BSA
MAb 400-2 = assay: MAb inhibition ELISA; free peptide inhibits 400-2 binding to coated hG17(1-9)-“Ala”-BSA
MAb 400-3 = assay: MAb inhibition ELISA; free peptide inhibits 400-3 binding to coated hG17(1-9)-“Ala”-BSA
MAb 458-3 [3] = assay: MAb inhibition ELISA; free peptide against 458-3 binding to the coated target conjugate
MAb 458-1 [4] = assay: MAb inhibition ELISA; free peptide against 458-1 binding to the coated target conjugate

B2: hG17(12-17)-Gly18 peptide … (peptide)
peptide: CPPPPSSYGWMDFG
- IC50 (MAb 445-2): 13000 nM
- IC50 (MAb 445-1): 4000 nM

B3: human gastrin-34 (G34) (peptide)
peptide: [pGlu]LGPQGPPHLVADPSKKEGPWLEEEEEAYGWMDF-NH2
modifications: ends and bridges not checked
- Inhibition at 10 nmol/ml (250 pmoles/well) (MAb 458-3 [1]): 90.7%
- Inhibition at 10 nmol/ml (250 pmoles/well) (MAb 458-5): 91.5%
- Inhibition at 10 nmol/ml (250 pmoles/well) (MAb 458-4): 86.7%
- IC50 (MAb 401-2): 700 nM
- Inhibition at 10 nmol/ml (250 pmoles/well) (MAb 458-1 [2]): 93.5%
- Inhibition at 10 nmol/ml (250 pmoles/well) (MAb 458-2): 84.5%

B5: hG17(9) (peptide)
peptide: EGPWLEEEE
- Inhibition at 10 nmol/ml (250 pmoles/well) (MAb 458-3 [3]): 1.2%

B6: glycine-extended gastrin-17 (G17-Gly) (peptide)
peptide: [pGlu]GPWLEEEEEAYGWMDFG
modifications: ends and bridges not checked
- IC50 (MAb 400-1): 1790 nM
- IC50 (MAb 400-4): 699 nM
- Inhibition at 10 nmol/ml (250 pmoles/well) (MAb 458-1 [4]): 2.1%
- IC50 (MAb 400-2): 77 nM
- IC50 (MAb 445-2): 5000 nM
- IC50 (MAb 445-1): 700 nM
- IC50 (MAb 400-3): 1390 nM

Second part, the binder after the results:

- Inhibition at 10 nmol/ml (250 pmoles/well) (MAb 458-3 [1]): 84.8%
- Inhibition at 10 nmol/ml (250 pmoles/well) (MAb 458-5): 92%
- Inhibition at 10 nmol/ml (250 pmoles/well) (MAb 458-4): 83.4%
- Inhibition at 10 nmol/ml (250 pmoles/well) (MAb 458-1 [2]): 93.8%
- Inhibition at 10 nmol/ml (250 pmoles/well) (MAb 458-2): 84.8%
B1: CCK (26-33) unsulfated (peptide)
peptide: DYMGWMDF-NH2

- IC50 (MAb 400-1): 2030 nM
- IC50 (MAb 400-4): 620 nM
- Inhibition at 10 nmol/ml (250 pmoles/well) (MAb 458-3 [1]): 92.4%
- IC50 (MAb 400-2): 85 nM
- Inhibition at 10 nmol/ml (250 pmoles/well) (MAb 458-5): 91.9%
- Inhibition at 10 nmol/ml (250 pmoles/well) (MAb 458-4): 88.4%
- IC50 (MAb 400-3): 1080 nM
- Inhibition at 10 nmol/ml (250 pmoles/well) (MAb 458-1 [2]): 94.3%
- Inhibition at 10 nmol/ml (250 pmoles/well) (MAb 458-2): 86%
B4: human gastrin-17 (G17) (peptide)
peptide: EGPWLEEEEEAYGWMDF
modifications: N-terminal pyroglutamic acid (pE); C-terminal Phe-NH2 (amide)
